Measured values published in US20140335107A1 (published 2014).

T1: extracellular domain of human CD79b (huCD79becd) (human, UniProt P40259 29-159)
T1 construct: expressed in CHO cells
T1 sequence: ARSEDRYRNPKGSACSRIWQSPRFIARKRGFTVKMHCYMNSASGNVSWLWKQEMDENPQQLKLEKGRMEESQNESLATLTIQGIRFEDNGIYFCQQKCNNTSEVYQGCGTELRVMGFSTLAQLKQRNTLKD


Target: T1, extracellular domain of human CD79b …
Assay: phage selection, Fab on phage
Method: For phage selection, the extracellular domain of CD79b (huCD79becd) (2 μg/ml) was immobilized in PBS on MaxiSorp microtiter plates (Nunc) overnight at 4° C. Plates were blocked for at least 1 h using Casein Blocker (Pierce). Phage were harvested from the culture supernatant and suspended in PBS containing 0.5% BSA and 0.05% Tween 20 (PBSBT). Following addition of the phage library and phage selection for 2 h, microtiter wells were washed extensively with PBS containing 0.05% Tween 20 (PBST) to remove unbound phage and bound phage were eluted by incubating the wells with 100 mM HCl for 30 min. Selection stringency may be increased during successive rounds of selection by increasing the number of washes with PBST or by incubating with soluble huCD79becd for increasing time periods prior to elution.

Binder | binding result
huMA79b graft variant with HVR-L1 of SEQ ID NO: 17 (Fab, name in Kabat numbering, V domains shown, Fab on phage; also called SPL-2 mutation) VH: EVQLVESGGGLVQPGGSLRLSCAASGYTFSSYWIEWVRQAPGKGLEWVGEILPGGGDTNYNEIFKGRFTISADTSKNTAYLQMNSLRAEDTAVYYCTRRVPVYFDYWGQGTLVTVSS VL: DIQMTQSPSSLSASVGDRVTITCKASKSVDYDGDSFLNWYQQKPGKAPKLLIYAASNLESGVPSRFSGSGSGTDFTLTISSLQPEDFATYYCQQSNEDPLTFGQGTKVEIKR | binds
huMA79b graft variant with HVR-L2 of SEQ ID NO: 23 (Fab, name in Kabat numbering, V domains shown, Fab on phage) VH: EVQLVESGGGLVQPGGSLRLSCAASGYTFSSYWIEWVRQAPGKGLEWVGEILPGGGDTNYNEIFKGRFTISADTSKNTAYLQMNSLRAEDTAVYYCTRRVPVYFDYWGQGTLVTVSS VL: DIQMTQSPSSLSASVGDRVTITCKASQSVDYDGDSFLNWYQQKPGKAPKLLIYAASRLESGVPSRFSGSGSGTDFTLTISSLQPEDFATYYCQQSNEDPLTFGQGTKVEIKR | binds
huMA79b graft variant with HVR-L2 of SEQ ID NO: 18 (Fab, name in Kabat numbering, V domains shown, Fab on phage) VH: EVQLVESGGGLVQPGGSLRLSCAASGYTFSSYWIEWVRQAPGKGLEWVGEILPGGGDTNYNEIFKGRFTISADTSKNTAYLQMNSLRAEDTAVYYCTRRVPVYFDYWGQGTLVTVSS VL: DIQMTQSPSSLSASVGDRVTITCKASQSVDYDGDSFLNWYQQKPGKAPKLLIYAASNRESGVPSRFSGSGSGTDFTLTISSLQPEDFATYYCQQSNEDPLTFGQGTKVEIKR | binds
huMA79b graft variant with HVR-L2 of SEQ ID NO: 24 (Fab, name in Kabat numbering, V domains shown, Fab on phage) VH: EVQLVESGGGLVQPGGSLRLSCAASGYTFSSYWIEWVRQAPGKGLEWVGEILPGGGDTNYNEIFKGRFTISADTSKNTAYLQMNSLRAEDTAVYYCTRRVPVYFDYWGQGTLVTVSS VL: DIQMTQSPSSLSASVGDRVTITCKASQSVDYDGDSFLNWYQQKPGKAPKLLIYAARKLGNGVPSRFSGSGSGTDFTLTISSLQPEDFATYYCQQSNEDPLTFGQGTKVEIKR | binds
huMA79b graft variant with HVR-L2 of SEQ ID NO: 26 (Fab, name in Kabat numbering, V domains shown, Fab on phage; also called L2-29 mutation) VH: EVQLVESGGGLVQPGGSLRLSCAASGYTFSSYWIEWVRQAPGKGLEWVGEILPGGGDTNYNEIFKGRFTISADTSKNTAYLQMNSLRAEDTAVYYCTRRVPVYFDYWGQGTLVTVSS VL: DIQMTQSPSSLSASVGDRVTITCKASQSVDYDGDSFLNWYQQKPGKAPKLLIYAARYLKRGVPSRFSGSGSGTDFTLTISSLQPEDFATYYCQQSNEDPLTFGQGTKVEIKR | binds
huMA79b graft variant with HVR-L2 of SEQ ID NO: 27 (Fab, name in Kabat numbering, V domains shown, Fab on phage) VH: EVQLVESGGGLVQPGGSLRLSCAASGYTFSSYWIEWVRQAPGKGLEWVGEILPGGGDTNYNEIFKGRFTISADTSKNTAYLQMNSLRAEDTAVYYCTRRVPVYFDYWGQGTLVTVSS VL: DIQMTQSPSSLSASVGDRVTITCKASQSVDYDGDSFLNWYQQKPGKAPKLLIYAARKLKSGVPSRFSGSGSGTDFTLTISSLQPEDFATYYCQQSNEDPLTFGQGTKVEIKR | binds
huMA79b graft variant with HVR-L2 of SEQ ID NO: 19 (Fab, name in Kabat numbering, V domains shown, Fab on phage) VH: EVQLVESGGGLVQPGGSLRLSCAASGYTFSSYWIEWVRQAPGKGLEWVGEILPGGGDTNYNEIFKGRFTISADTSKNTAYLQMNSLRAEDTAVYYCTRRVPVYFDYWGQGTLVTVSS VL: DIQMTQSPSSLSASVGDRVTITCKASQSVDYDGDSFLNWYQQKPGKAPKLLIYAASNLKSGVPSRFSGSGSGTDFTLTISSLQPEDFATYYCQQSNEDPLTFGQGTKVEIKR | binds
huMA79b graft variant with HVR-L2 of SEQ ID NO: 25 (Fab, name in Kabat numbering, V domains shown, Fab on phage) VH: EVQLVESGGGLVQPGGSLRLSCAASGYTFSSYWIEWVRQAPGKGLEWVGEILPGGGDTNYNEIFKGRFTISADTSKNTAYLQMNSLRAEDTAVYYCTRRVPVYFDYWGQGTLVTVSS VL: DIQMTQSPSSLSASVGDRVTITCKASQSVDYDGDSFLNWYQQKPGKAPKLLIYAARKLKRGVPSRFSGSGSGTDFTLTISSLQPEDFATYYCQQSNEDPLTFGQGTKVEIKR | binds
